Assay results published in US20100297120A1.

Target: epidermal growth factor receptor (EGFR) on EGFR positive U87 cells (UniProt P00533)
Test: FACS, saturation binding to EGFR on cells

Substance “Anti-EGFR-Angiopep-2 conjugate (EGFR antibody monoclonal 528 cross-linked to Angiopep-2 with SATA)” has a Half saturation of 1.8 nM.

With “EGFR antibody (monoclonal 528 available from ATCC)” the Bmax (RFU) was 23.6 RFU and the Half saturation was 1.7 nM.
